Test results as given in patent US20250235501A1, “Methods and Compositions for Treating or Preventing Neurological Injury or Neurological Disorders” (University of Connecticut, priority 2024, published 2025).

Biological target: T1, TRPM2 interaction with GluN2b (Rattus norvegicus, UniProt Q00960)
T1 construct: TRPM2 plasmid a gift 17928; 17924; 17925; host or cells: HEK293T
Assay: Co-IP of TRPM2 with GluN2b in co-transfected HEK293T cells
Format: cell-based, human
Conditions: 10 μM peptide overnight; IP anti-GluN2b, WB anti-Flag
Description: FIGS. 5A and 5B show the effects of TAT-EE3 on interaction of TRPM2 and NMDARs. Co-IP tests of NMDARs with WT or EE3 domain mutants of TRPM2 (Flag-tagged) in co-transfected HEK293T cells. WT TRPM2 groups were treated with 10 μM TAT-SC or TAT-EE3 overnight. Lysates were IP's with anti-GluN2a (FIG. 5A) or anti-GluN2b (FIG. 5B), and probed by WBs with anti-Flag. IgG was used as control for IP. Similar to the mutants TRPM2-ΔEE3 and TRPM2-EQE, TAT-EE3 disrupted TRPM2 interaction with GluN2a and GluN2b.
were ordered from GenScript Biotech, and dissolved in PBS to make a stock concentration at 10 mM. HEK-293T cells or isolated neurons were treated with TAT-SC or TAT-EE3 at a concentration of 10 μM for at least 8 h prior to use. Mice were injected with TAT-SC or TAT-EE3 intraperitoneally (ip) at a dose of 100 nmol/kg. […]
NP-40 lysis buffer ([…], 150 mM NaCl, 1 mM EDTA, 50 mM Tris, pH=8.0) containing proteinase inhibitors (Sigma-Aldrich, 539131-10VL) and phosphatase inhibitors (Thermal Fisher Scientific, 78428) was used to lyse both cultured cells and frozen brain tissue. […] Protein concentration was measured using Pierce™ Rapid Gold BCA Protein Assay Kit (Thermal Fisher Scientific, A53225). […] Then samples were ready for western blotting analysis.

T1 sequence (Q00960 27-1482, other chains not shown): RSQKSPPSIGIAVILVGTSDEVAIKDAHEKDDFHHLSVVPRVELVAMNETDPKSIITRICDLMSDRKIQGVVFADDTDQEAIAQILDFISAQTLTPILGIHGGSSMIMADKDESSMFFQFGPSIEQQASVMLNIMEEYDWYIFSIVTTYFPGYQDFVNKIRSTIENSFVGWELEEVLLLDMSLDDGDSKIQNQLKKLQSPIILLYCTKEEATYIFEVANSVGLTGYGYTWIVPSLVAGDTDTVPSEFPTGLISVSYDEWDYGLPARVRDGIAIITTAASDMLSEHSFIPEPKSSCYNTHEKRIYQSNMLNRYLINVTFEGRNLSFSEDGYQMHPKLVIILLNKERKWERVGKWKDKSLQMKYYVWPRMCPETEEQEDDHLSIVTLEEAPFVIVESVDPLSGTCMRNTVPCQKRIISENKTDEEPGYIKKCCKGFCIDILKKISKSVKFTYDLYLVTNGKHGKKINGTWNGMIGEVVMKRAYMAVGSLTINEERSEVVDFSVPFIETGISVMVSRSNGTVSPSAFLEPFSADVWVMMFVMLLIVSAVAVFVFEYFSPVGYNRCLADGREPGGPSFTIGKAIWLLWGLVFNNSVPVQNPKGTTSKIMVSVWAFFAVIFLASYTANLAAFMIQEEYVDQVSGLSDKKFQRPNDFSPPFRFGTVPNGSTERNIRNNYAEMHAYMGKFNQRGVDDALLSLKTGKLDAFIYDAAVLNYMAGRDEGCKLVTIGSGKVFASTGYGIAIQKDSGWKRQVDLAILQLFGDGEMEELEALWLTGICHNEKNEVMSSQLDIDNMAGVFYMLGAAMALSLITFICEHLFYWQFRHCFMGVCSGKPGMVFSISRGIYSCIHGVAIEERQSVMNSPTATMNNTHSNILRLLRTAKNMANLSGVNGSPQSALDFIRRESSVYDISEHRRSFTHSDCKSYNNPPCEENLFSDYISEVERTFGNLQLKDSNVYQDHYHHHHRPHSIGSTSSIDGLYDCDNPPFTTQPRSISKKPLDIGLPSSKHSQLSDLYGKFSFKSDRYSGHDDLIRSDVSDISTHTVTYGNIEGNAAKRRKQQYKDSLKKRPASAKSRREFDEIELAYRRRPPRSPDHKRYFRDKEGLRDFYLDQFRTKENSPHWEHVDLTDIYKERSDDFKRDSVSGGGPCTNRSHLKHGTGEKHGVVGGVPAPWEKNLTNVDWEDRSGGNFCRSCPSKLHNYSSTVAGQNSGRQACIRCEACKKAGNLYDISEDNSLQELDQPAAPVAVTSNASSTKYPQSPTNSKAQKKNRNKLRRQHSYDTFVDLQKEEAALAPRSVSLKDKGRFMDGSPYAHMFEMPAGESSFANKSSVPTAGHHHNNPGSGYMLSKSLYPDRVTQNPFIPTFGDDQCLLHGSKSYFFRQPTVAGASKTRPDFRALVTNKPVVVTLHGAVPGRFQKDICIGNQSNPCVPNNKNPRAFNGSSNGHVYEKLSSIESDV

TAT-EE3: membrane permeable disrupting peptide, sequence YGRKKRRQRRREEDTDSSEEMLALAEE (SEQ ID NO: 4)
interaction of TRPM2 with GluN2b (co-IP): completely disrupted
